Reference: article PMC2892170 (Biochemistry, 2009)

Target: the molecule itself
Assay: SEC

B1: Enterococcus faecalis phosphopantothenoylcysteine synthetase (enzyme, UniProt A0ACD6TE34 1-257, looked up)
chain: MDVLVTAGGTSEPIDNVRSITNHSSGGLGKAIAESFLAAGHTVTYVTTKHALRPTQQLDLSIKEIETTVELATTLEQLFAEKQFDAIVHAMAVSDFTTEAAQTEEQFIDSFTQQLSEQTLPKTKEALATIVQNTLNQIADIPQTATKISSDTDRLLIFLKKNPKVIQMIRDKQPQTVLVGFKLLVDVSQEELVQVAQAALVKNRCDFVLANDLMNVHETEHEGLLINETGIVQEACSKQGIGSMIVKNVEKKWREQQ
How did the “stoichiometry N” value turn out when B1 was run?
The value was 2.
